Laboratory results published in publication doi:10.1101/2021.10.22.465432 (bioRxiv, 2021).

Molecular target: T1, Drosha (mouse (endogenous in N2A), UniProt Q5HZJ0 1-1373)
T1 sequence: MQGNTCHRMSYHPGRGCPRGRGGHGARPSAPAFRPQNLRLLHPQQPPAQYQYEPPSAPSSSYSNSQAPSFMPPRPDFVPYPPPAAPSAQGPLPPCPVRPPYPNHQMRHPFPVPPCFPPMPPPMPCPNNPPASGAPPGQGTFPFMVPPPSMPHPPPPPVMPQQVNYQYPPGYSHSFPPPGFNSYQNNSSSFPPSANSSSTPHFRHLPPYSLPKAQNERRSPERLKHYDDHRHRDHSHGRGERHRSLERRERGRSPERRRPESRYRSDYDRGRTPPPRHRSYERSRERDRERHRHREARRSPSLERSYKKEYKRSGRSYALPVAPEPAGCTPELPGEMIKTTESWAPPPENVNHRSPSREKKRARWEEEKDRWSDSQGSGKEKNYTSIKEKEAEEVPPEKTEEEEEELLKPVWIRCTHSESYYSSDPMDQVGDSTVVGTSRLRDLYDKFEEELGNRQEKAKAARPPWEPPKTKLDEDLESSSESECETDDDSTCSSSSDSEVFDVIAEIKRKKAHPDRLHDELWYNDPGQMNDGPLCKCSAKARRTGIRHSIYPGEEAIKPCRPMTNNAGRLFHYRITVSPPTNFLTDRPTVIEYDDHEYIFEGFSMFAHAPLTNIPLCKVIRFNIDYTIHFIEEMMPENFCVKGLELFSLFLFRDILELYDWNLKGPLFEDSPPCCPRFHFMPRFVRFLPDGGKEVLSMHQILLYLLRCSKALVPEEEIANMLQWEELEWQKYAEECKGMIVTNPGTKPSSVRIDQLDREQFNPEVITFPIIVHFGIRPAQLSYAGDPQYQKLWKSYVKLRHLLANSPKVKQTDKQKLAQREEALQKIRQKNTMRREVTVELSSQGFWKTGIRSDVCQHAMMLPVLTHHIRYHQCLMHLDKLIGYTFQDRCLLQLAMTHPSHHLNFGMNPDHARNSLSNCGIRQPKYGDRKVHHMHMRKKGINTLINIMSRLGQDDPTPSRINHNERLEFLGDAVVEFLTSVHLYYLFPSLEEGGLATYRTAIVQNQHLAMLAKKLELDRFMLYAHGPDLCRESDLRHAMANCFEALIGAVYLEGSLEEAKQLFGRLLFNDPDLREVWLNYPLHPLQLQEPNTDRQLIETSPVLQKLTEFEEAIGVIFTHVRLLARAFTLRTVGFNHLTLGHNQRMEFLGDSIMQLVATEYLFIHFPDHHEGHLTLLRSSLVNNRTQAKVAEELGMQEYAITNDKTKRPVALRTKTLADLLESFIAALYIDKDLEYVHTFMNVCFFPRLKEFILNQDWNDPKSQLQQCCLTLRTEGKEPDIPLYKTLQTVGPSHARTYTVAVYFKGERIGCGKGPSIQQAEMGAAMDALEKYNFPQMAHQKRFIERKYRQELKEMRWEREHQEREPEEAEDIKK
Test: co-IP

B1: Safb1-ΔRE-HA (natural protein)
chain: MAETLSGLGDASAAGAAAVSSAASETGTRRLSDLRVIDLRAELKKRNLDSSGNKSVLMERLKKAIEDEGGNPDEIEVTSECNKKMPKRPSKGRKPEDEGVEDNGLEENSGDGQEDVETSLENLQDMDMMDISVLDEADIDNGSVADCVEEEEEATLPEGLADSTELVEGDLKGLPEQLQEHAIDDKDTVNNVDTSSSDFTMLQEMEEASLEPENEKILDILGETCKSEPVKEEGSELEQPFAQATSSVGPDRKLAEEEDLFESCGHPEEEEEEEEEDQEEEQEEEGDLALASSSKSESPSTRCQWSEADAPLAVVKREPADAPGGGTGMDREPVGLEEPVEQSSTAAQLPEATSQELVRAPTAALSPEPQDSKEDVKKFAFDACNDVPAPPKESSASEGADQKMSSVEEDSDTKRLSREEKGRSSCGRNFWVSGLSSTTRATDLKNLFSRYGKVVGAKVVTNARSPGARCYGFVTMSTAEEATKCISHLHKTELHGKMISVEKAKSEPTGKRVPDRRDGDSKKEKASTSDRSANLKREEKGERKDDAKKTDHREREELRRQQELRYEQERRPAVRRPYEVDGRRDDAYWPEAKRAALDDRYHSDFSRQDRFHDFDHRDRGRYPNHSVDRREGSRSMMGDREGQHYPERHGGPERHGRDSRDGWGYGSNKRLSEGRGLPPPPRRDWGEHGRRLEDDRAWQGTADGGMMERDHKRWQGGERSMSGHSGPGHMMNRGGMSGRGSFAPGGASRGHVIPRGGMQAGFGGQSRGSRPSDARFTRRY
- fold reduction in binding against Safb1 wild type: 5.7 fold
